Measured values from patent KR20210063070A (dated 2021).
Where a chain is given by its changes, count along the chain named. Names may count otherwise.

T1: recombinant mouse B7-H3 protein with C-terminal His tag (Sino Biological, 50973-M08H) (mouse, UniProt Q8VE98 29-244)
T1 construct: Bought; also called 마우스 B7-H3
T1 sequence (looked up): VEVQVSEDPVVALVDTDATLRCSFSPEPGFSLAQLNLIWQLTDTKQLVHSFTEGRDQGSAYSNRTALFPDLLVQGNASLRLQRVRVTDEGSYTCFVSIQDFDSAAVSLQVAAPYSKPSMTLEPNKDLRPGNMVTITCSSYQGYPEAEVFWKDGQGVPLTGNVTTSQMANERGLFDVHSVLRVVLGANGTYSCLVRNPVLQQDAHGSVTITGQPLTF

T2: mouse B7-H3 expressed on the surface of mouse cancer cell lines (CT26, B16F10, TC-1) (mouse, UniProt Q8VE98 29-316)
T2 construct: whole, on cells; also called 세포 표면 발현 마우스 B7-H3
T2 sequence (looked up): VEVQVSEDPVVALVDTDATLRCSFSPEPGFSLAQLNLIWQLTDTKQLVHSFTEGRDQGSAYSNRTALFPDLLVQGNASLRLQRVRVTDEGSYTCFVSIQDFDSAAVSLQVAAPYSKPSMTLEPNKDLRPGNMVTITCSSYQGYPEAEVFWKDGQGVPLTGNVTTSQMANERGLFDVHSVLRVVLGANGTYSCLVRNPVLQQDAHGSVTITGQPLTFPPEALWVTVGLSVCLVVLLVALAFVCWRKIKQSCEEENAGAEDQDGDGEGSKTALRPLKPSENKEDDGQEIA

T3: human B7-H3 expressed on the surface of human cancer cell lines (human, UniProt Q5ZPR3 29-534)
T3 construct: whole, on cells; also called 세포 표면 발현 B7-H3; CD276
T3 sequence (looked up): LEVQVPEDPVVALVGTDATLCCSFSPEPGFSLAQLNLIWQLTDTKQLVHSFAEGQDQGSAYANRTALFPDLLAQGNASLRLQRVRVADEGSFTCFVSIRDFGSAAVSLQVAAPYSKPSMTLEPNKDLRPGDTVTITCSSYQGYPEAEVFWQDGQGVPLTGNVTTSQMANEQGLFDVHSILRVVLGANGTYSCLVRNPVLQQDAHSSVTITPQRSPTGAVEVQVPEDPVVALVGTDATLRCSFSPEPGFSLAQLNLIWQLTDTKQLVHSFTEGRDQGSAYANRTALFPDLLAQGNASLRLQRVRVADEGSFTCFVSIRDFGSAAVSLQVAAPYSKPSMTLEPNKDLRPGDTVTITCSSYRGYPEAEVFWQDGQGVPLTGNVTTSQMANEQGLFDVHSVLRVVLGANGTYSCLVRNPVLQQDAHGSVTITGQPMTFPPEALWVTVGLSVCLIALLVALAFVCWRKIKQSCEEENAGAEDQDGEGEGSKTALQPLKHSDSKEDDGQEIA

B1: anti-B7-H3 antibody B5 (full IgG form) (antibody, V domains shown)
VH: EVQLLESGGGLVQPGGSLRLSCAASGFTFSDYAMSWVRQAPGKGLEWVSSISSGSGSIYYADSVKGRFTISRDNSKNTLYLQMNSLRAEDTAVYYCAKNLIPLDYWGQGTLVTVSS
VL: QSVLTQPPSASGTPGQRVTISCSGSSSNIGSNAVSWYQQLPGTAPKLLIYYNSHRPSGVPDRFSGSKSGTSASLAISGLRSEDEADYYCGSWDASLNAYVFGGGTKLTVLG
B2: anti-B7-H3 antibody D8G (full IgG form) (antibody, V domains shown)
VH: EVQLLESGGGLVQPGGSLRLSCAASGFTFSSYSMSWVRQAPGKGLEWVSGIYSDGSNTYYADSVKGRFTISRDNSKNTLYLQMNSLRAEDTAVYYCAKMLHRFDYWGQGTLVTVSS
VL: B1 VL with A33S, S35T, Y51A, N52D, H54Q, S91T, A94S
B3: anti-B7-H3 antibody F6V (full IgG form) (antibody, V domains shown)
VH: EVQLLESGGGLVQPGGSLRLSCAASGFTFSDYAMSWVRQAPGKGLEWVSGISPGGSNTYYADSVKGRFTISRDNSKNTLYLQMNSLRAEDTAVYYCAKDAWIARLLLFDYWGQGTLVTVSS
VL: B1 VL with S35T, S53N, H54K, S91T, A94D, N97S, A98G
B4: anti-B7-H3 antibody C4I (full IgG form) (antibody, V domains shown)
VH: B1 VH with D31G, A33Y, S50L, S53P, G54S, N99G, I101T, P102K, L103F
VL: B1 VL with S23T, A33D, Y51A, A94D, N97S, A98G
B5: anti-B7-H3 antibody 10F11 (full IgG form) (antibody, V domains shown)
VH: B2 VH with S33G, D54G, N57S, T58K, M99N, L100R, H101L
VL: B1 VL with S23T, A33S, S35T, Y51S, N52D, S91T

The binders below were run against T1, recombinant mouse B7-H3 protein with … (assay: ELISA, IgG on coated recombinant mouse B7-H3-His).

Row | binding result | Binder
1 | binds | B1
2 | binds | B2
3 | binds | B3
4 | binds | B4
5 | binds | B5

What follows are binders tested against T2, mouse B7-H3 expressed on the surface of … (assay: flow cytometry on CT26, B16F10 and TC-1 cells, 10 ㎍/㎖).

Row | binding result | Binder
6 | binds | B1
7 | binds | B2
8 | binds | B3
9 | binds | B4
10 | binds | B5

These binders were tested against T3, human B7-H3 expressed on the surface of … (assay: flow cytometry on human cancer cell lines that express B7-H3).

Row | binding result | Binder
11 | binds | B1
12 | binds | B2
13 | binds | B3
14 | binds | B4
15 | binds | B5
